# Test results reported in the supplement of paper PMC10567573.
# B1: EFHC1 (parent)
# chain: NIYYYLEDDSMSVIEPVVENSGIL
# Variants of: B1
# Test: protein stability index of a GFP-peptide fusion (GPS, HEK-293T) (PSI 1-6); higher = more stable
# Settings: c terminus: a fixed tail appended
# 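Also: lentivirally expressed fusions sorted by FACS into six bins by GFP to DsRed ratio, PSI derived from sequencing read proportions per bin multiplied by bin number.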
row,Variant,protein stability index
1,NIYYYLEDDSMSVIEPVVGNSGIL [E19G],1.74
2,NIYYYLEDDSMSVIEPVVHNSGIL [E19H],2.01
3,NIYYYLEDDSMSVIEPVVINSGIL [E19I],1.77
4,NIYYYLEDDSMSVIEPVVKNSGIL [E19K],2.23
5,NIYYYLEDDSMSVIEPVVLNSGIL [E19L],1.42
6,NIYYYLEDDSMSVIEPVVMNSGIL [E19M],1.86
7,NIYYYLEDDSMSVIEPVVNNSGIL [E19N],1.69
8,NIYYYLEDDSMSVIEPVVPNSGIL [E19P],2.34
9,NIYYYLEDDSMSVIEPVVQNSGIL [E19Q],2.16
10,NIYYYLEDDSMSVIEPVVRNSGIL [E19R],1.67
11,NIYYYLEDDSMSVIEPVVSNSGIL [E19S],1.35
12,NIYYYLEDDSMSVIEPVVTNSGIL [E19T],1.66
13,NIYYYLEDDSMSVIEPVVVNSGIL [E19V],2
14,NIYYYLEDDSMSVIEPVVYNSGIL [E19Y],2.53
15,NIYYYLEDDSMSVIEPVVEASGIL [N20A],1.69
16,NIYYYLEDDSMSVIEPVVECSGIL [N20C],1.93
17,NIYYYLEDDSMSVIEPVVEDSGIL [N20D],1.7
18,NIYYYLEDDSMSVIEPVVEESGIL [N20E],2.46
19,NIYYYLEDDSMSVIEPVVEFSGIL [N20F],1.48
20,NIYYYLEDDSMSVIEPVVEGSGIL [N20G],2.77
21,NIYYYLEDDSMSVIEPVVEHSGIL [N20H],1.79
22,NIYYYLEDDSMSVIEPVVEKSGIL [N20K],2.06
23,NIYYYLEDDSMSVIEPVVELSGIL [N20L],3.52
24,NIYYYLEDDSMSVIEPVVEPSGIL [N20P],2.95

row,Variant,protein stability index
1,NIYYYLEDDSMSVIEPVVEQSGIL [N20Q],1.67
2,NIYYYLEDDSMSVIEPVVERSGIL [N20R],1.33
3,NIYYYLEDDSMSVIEPVVESSGIL [N20S],2.13
4,NIYYYLEDDSMSVIEPVVETSGIL [N20T],1.71
5,NIYYYLEDDSMSVIEPVVEVSGIL [N20V],2.71
6,NIYYYLEDDSMSVIEPVVEWSGIL [N20W],2.37
7,NIYYYLEDDSMSVIEPVVENAGIL [S21A],1.76
8,NIYYYLEDDSMSVIEPVVENCGIL [S21C],2.57
9,NIYYYLEDDSMSVIEPVVENDGIL [S21D],2.4
10,NIYYYLEDDSMSVIEPVVENEGIL [S21E],2.31
11,NIYYYLEDDSMSVIEPVVENFGIL [S21F],1.45
12,NIYYYLEDDSMSVIEPVVENGGIL [S21G],2.23
13,NIYYYLEDDSMSVIEPVVENHGIL [S21H],2.09
14,NIYYYLEDDSMSVIEPVVENIGIL [S21I],1.48
15,NIYYYLEDDSMSVIEPVVENKGIL [S21K],2.12
16,NIYYYLEDDSMSVIEPVVENLGIL [S21L],2.03
17,NIYYYLEDDSMSVIEPVVENMGIL [S21M],1.78
18,NIYYYLEDDSMSVIEPVVENNGIL [S21N],2.33
19,NIYYYLEDDSMSVIEPVVENPGIL [S21P],2.4
20,NIYYYLEDDSMSVIEPVVENQGIL [S21Q],2.6
21,NIYYYLEDDSMSVIEPVVENRGIL [S21R],1.74
22,NIYYYLEDDSMSVIEPVVENTGIL [S21T],1.82
23,NIYYYLEDDSMSVIEPVVENVGIL [S21V],1.6
24,NIYYYLEDDSMSVIEPVVENYGIL [S21Y],1.39

row,Variant,protein stability index
1,NIYYYLEDDSMSVIEPVVENSAIL [G22A],2.19
2,NIYYYLEDDSMSVIEPVVENSCIL [G22C],1.62
3,NIYYYLEDDSMSVIEPVVENSDIL [G22D],2.44
4,NIYYYLEDDSMSVIEPVVENSEIL [G22E],2.71
5,NIYYYLEDDSMSVIEPVVENSHIL [G22H],1.71
6,NIYYYLEDDSMSVIEPVVENSIIL [G22I],1.81
7,NIYYYLEDDSMSVIEPVVENSKIL [G22K],1.78
8,NIYYYLEDDSMSVIEPVVENSLIL [G22L],1.51
9,NIYYYLEDDSMSVIEPVVENSMIL [G22M],1.46
10,NIYYYLEDDSMSVIEPVVENSNIL [G22N],2.25
11,NIYYYLEDDSMSVIEPVVENSPIL [G22P],2.14
12,NIYYYLEDDSMSVIEPVVENSQIL [G22Q],1.82
13,NIYYYLEDDSMSVIEPVVENSRIL [G22R],1.55
14,NIYYYLEDDSMSVIEPVVENSSIL [G22S],1.7
15,NIYYYLEDDSMSVIEPVVENSTIL [G22T],1.42
16,NIYYYLEDDSMSVIEPVVENSVIL [G22V],2.43
17,NIYYYLEDDSMSVIEPVVENSYIL [G22Y],1.5
18,NIYYYLEDDSMSVIEPVVENSGAL [I23A],2.82
19,NIYYYLEDDSMSVIEPVVENSGCL [I23C],2.12
20,NIYYYLEDDSMSVIEPVVENSGDL [I23D],2.81
21,NIYYYLEDDSMSVIEPVVENSGEL [I23E],3.12
22,NIYYYLEDDSMSVIEPVVENSGFL [I23F],1.2
23,NIYYYLEDDSMSVIEPVVENSGGL [I23G],2.14
24,NIYYYLEDDSMSVIEPVVENSGHL [I23H],2.43

row,Variant,protein stability index
1,NIYYYLEDDSMSVIEPVVENSGKL [I23K],2.53
2,NIYYYLEDDSMSVIEPVVENSGNL [I23N],2.71
3,NIYYYLEDDSMSVIEPVVENSGPL [I23P],2.42
4,NIYYYLEDDSMSVIEPVVENSGQL [I23Q],2.78
5,NIYYYLEDDSMSVIEPVVENSGRL [I23R],1.99
6,NIYYYLEDDSMSVIEPVVENSGTL [I23T],3.04
7,NIYYYLEDDSMSVIEPVVENSGVL [I23V],1.8
8,NIYYYLEDDSMSVIEPVVENSGWL [I23W],2.47
9,NIYYYLEDDSMSVIEPVVENSGYL [I23Y],2.51
10,NIYYYLEDDSMSVIEPVVENSGIA [L24A],2.08
11,NIYYYLEDDSMSVIEPVVENSGIC [L24C],2.02
12,NIYYYLEDDSMSVIEPVVENSGID [L24D],2.48
13,NIYYYLEDDSMSVIEPVVENSGIF [L24F],2.12
14,NIYYYLEDDSMSVIEPVVENSGIG [L24G],2.47
15,NIYYYLEDDSMSVIEPVVENSGIH [L24H],2.31
16,NIYYYLEDDSMSVIEPVVENSGII [L24I],3.15
17,NIYYYLEDDSMSVIEPVVENSGIM [L24M],2.02
18,NIYYYLEDDSMSVIEPVVENSGIN [L24N],2.48
19,NIYYYLEDDSMSVIEPVVENSGIP [L24P],2.41
20,NIYYYLEDDSMSVIEPVVENSGIQ [L24Q],2.36
21,NIYYYLEDDSMSVIEPVVENSGIR [L24R],2.46
22,NIYYYLEDDSMSVIEPVVENSGIS [L24S],2.58
